Assay results as given in publication PMC8680157 (Nature, 2021).

Target: histone H4 (in the NCP), unmodified at K20 (human, UniProt P62805 1-103)
Test: cryo-EM structure

B1: BARD1 (ARD–BRCT), residues 415–777, as tethered to the NCP in BARD1^AB–NCPub (domain or fragment)
chain: KLLPNMAVKRNHRGETLLHIASIKGDIPSVEYLLQNGSDPNVKDHAGWTPLHEACNHGHLKVVELLLQHKALVNTTGYQNDSPLHDAAKNGHVDIVKLLLSYGASRNAVNIFGLRPVDYTDDESMKSLLLLPEKNESSSASHCSVMNTGQRRDGPLVLIGSGLSSEQQKMLSELAVILKAKKYTEFDSTVTHVVVPGDAVQSTLKCMLGILNGCWILKFEWVKACLRRKVCEQEEKYEIPEGPRRSRLNREQLLPKLFDGCYFYLWGTFKHHPKDNLIKLVTAGGGQILSRKPKPDSDVTQTINTVAYHARPDSDQRFCTQYIIYEDLCNYHPERVRQGKVWKAPSSWFIDCVMSFELLPLDS
  binding result: binds
